In article PMC3176292, “Mutations in Protein-Binding Hot-Spots on the Hub Protein Smad3 Differentially Affect Its Protein Interactions and Smad3-Regulated Gene Expression” (PLoS ONE, 2011):

T1: Flag-SARA, full length (UniProt O95405 1-1425)
T1 construct: SARA; plasmid pCMV5b-Flag-SARA; also called SARA FL; source: HEK-293, transfected, in lysate
T1 sequence (looked up): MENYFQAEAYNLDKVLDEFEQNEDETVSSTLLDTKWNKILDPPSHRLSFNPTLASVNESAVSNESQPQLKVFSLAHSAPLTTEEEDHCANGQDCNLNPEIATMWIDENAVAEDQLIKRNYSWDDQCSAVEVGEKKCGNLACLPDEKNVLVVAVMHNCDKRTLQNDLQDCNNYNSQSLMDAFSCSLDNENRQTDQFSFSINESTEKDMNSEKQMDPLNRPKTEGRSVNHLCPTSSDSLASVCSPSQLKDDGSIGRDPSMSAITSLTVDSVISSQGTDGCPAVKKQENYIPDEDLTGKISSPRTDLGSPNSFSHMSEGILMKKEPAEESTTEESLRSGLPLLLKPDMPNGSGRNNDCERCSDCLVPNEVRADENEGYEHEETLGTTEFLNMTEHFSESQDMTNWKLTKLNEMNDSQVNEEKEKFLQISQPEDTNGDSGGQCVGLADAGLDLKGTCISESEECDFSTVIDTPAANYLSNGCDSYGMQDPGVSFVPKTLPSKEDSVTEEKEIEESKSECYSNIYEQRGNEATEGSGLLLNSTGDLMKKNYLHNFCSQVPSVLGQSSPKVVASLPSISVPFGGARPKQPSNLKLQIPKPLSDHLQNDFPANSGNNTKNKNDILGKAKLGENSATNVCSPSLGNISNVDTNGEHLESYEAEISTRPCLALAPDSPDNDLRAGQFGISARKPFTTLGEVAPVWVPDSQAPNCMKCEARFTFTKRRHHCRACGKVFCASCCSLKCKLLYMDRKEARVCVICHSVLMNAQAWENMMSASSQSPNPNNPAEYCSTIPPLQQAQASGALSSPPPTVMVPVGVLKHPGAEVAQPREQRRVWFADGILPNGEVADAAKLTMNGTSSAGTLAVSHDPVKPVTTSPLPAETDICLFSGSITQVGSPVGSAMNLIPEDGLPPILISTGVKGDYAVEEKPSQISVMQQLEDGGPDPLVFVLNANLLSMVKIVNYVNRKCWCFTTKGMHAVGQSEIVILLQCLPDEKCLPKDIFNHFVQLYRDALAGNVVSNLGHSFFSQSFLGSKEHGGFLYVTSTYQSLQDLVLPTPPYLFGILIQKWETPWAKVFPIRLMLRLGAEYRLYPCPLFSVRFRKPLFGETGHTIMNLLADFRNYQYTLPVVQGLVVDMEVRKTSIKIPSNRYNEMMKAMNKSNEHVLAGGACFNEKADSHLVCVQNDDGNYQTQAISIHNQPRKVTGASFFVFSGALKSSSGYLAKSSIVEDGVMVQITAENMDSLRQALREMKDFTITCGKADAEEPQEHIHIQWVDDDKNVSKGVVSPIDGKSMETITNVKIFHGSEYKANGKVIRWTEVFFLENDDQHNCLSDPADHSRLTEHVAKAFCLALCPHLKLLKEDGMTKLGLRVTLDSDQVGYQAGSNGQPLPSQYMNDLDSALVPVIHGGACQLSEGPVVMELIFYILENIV

T2: SIP1 Smad-binding domain (amino acids 315–487) on the 3xFlag-thioredoxin scaffold (UniProt Q9R0G7 315-487)
T2 construct: SIP1, amino acids 315–487; amplified from pACT2-SIP1-315-487 (from D. Huylebroeck), which I recall as a mouse clone; cloned into the RsrII site of pCI-3xFLAG-Trx; also called Sip1 315–487; TrxSIP1; source: HEK-293, transfected, in lysate
T2 sequence (looked up): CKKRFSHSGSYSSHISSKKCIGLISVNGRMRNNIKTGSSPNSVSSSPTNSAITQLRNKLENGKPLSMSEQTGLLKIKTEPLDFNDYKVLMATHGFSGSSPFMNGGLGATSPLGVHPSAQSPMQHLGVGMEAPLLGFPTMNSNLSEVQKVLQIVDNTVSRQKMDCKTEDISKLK

T3: Flag-Smad4, full length (UniProt Q13485 1-552)
T3 construct: Smad4; plasmid pCMV5-Flag-Smad4 (from J. Massagué); also called Smad4 FL; source: HEK-293, transfected, in lysate
T3 sequence (looked up): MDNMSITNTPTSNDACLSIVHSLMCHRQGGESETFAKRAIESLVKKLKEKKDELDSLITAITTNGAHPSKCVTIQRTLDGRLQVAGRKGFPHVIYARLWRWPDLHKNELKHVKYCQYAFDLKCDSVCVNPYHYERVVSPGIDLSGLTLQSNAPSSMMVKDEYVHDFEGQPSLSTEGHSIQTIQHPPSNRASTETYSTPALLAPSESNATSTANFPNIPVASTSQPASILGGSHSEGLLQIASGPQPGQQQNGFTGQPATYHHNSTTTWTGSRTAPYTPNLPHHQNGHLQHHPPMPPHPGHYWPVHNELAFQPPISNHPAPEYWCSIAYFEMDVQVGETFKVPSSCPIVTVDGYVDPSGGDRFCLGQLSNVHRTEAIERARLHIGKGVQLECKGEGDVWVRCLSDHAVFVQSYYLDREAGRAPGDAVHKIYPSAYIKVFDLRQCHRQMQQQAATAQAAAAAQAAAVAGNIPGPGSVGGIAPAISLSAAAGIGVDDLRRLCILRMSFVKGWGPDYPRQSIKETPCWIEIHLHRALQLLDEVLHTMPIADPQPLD


Assays:
Experiment in all cases: co-IP; LUMIER: Renilla luciferase-Smad3 and Flag-tagged partner co-expressed with constitutively active Alk5 in HEK-293; Flag protein captured from cleared lysate (TNE: 10 mM Tris-HCl pH 7.8, 150 mM NaCl, 1 mM EDTA, 1% Igepal CA-630) on anti-Flag 96-well plates, 2 h at 4 °C; co-precipitated Renilla luciferase activity, TrxGA background subtracted, percent of wild-type Smad3
Conditions in all cases: partners not purified
[1] = target: T1, Flag-SARA, full length
[2] = target: T2, SIP1 Smad-binding domain (amino acids …)
[3] = target: T3, Flag-Smad4, full length

Row | Binder | percent binding relative to wild-type Smad3 [1] | percent binding relative to wild-type Smad3 [2] | percent binding relative to wild-type Smad3 [3]
1 | Renilla luciferase-Smad3 R292A (natural protein, UniProt P84022 1-425, looked up, Smad3; source: HEK-293, transfected together with constitutively active Alk5, in lysate) MSSILPFTPPIVKRLLGWKKGEQNGQEEKWCEKAVKSLVKKLKKTGQLDELEKAITTQNVNTKCITIPRSLDGRLQVSHRKGLPHVIYCRLWRWPDLHSHHELRAMELCEFAFNMKKDEVCVNPYHYQRVETPVLPPVLVPRHTEIPAEFPPLDDYSHSIPENTNFPAGIEPQSNIPETPPPGYLSEDGETSDHQMNHSMDAGSPNLSPNPMSPAHNNLDLQPVTYCEPAFWCSISYYELNQRVGETFHASQPSMTVDGFTDPSNSERFCLGLLSNVNRNAAVELTRRHIGAGVRLYYIGGEVFAECLSDSAIFVQSPNCNQRYGWHPATVCKIPPGCNLKIFNNQEFAALLAQSVNQGFEAVYQLTRMCTIRMSFVKGWGAEYRRQTVTSTPCWIELHLNGPLQWLDKVLTQMGSPSIRCSSVS | 120% | 32% | 49%
2 | Renilla luciferase-Smad3 Y238A (natural protein, UniProt P84022 1-425, looked up, Smad3; source: HEK-293, transfected together with constitutively active Alk5, in lysate) MSSILPFTPPIVKRLLGWKKGEQNGQEEKWCEKAVKSLVKKLKKTGQLDELEKAITTQNVNTKCITIPRSLDGRLQVSHRKGLPHVIYCRLWRWPDLHSHHELRAMELCEFAFNMKKDEVCVNPYHYQRVETPVLPPVLVPRHTEIPAEFPPLDDYSHSIPENTNFPAGIEPQSNIPETPPPGYLSEDGETSDHQMNHSMDAGSPNLSPNPMSPAHNNLDLQPVTYCEPAFWCSISYAELNQRVGETFHASQPSMTVDGFTDPSNSERFCLGLLSNVNRNAAVELTRRHIGRGVRLYYIGGEVFAECLSDSAIFVQSPNCNQRYGWHPATVCKIPPGCNLKIFNNQEFAALLAQSVNQGFEAVYQLTRMCTIRMSFVKGWGAEYRRQTVTSTPCWIELHLNGPLQWLDKVLTQMGSPSIRCSSVS | 162% | 15% | 27%
3 | Renilla luciferase-Smad3 Y384A (natural protein, UniProt P84022 1-425, looked up, Smad3; source: HEK-293, transfected together with constitutively active Alk5, in lysate) MSSILPFTPPIVKRLLGWKKGEQNGQEEKWCEKAVKSLVKKLKKTGQLDELEKAITTQNVNTKCITIPRSLDGRLQVSHRKGLPHVIYCRLWRWPDLHSHHELRAMELCEFAFNMKKDEVCVNPYHYQRVETPVLPPVLVPRHTEIPAEFPPLDDYSHSIPENTNFPAGIEPQSNIPETPPPGYLSEDGETSDHQMNHSMDAGSPNLSPNPMSPAHNNLDLQPVTYCEPAFWCSISYYELNQRVGETFHASQPSMTVDGFTDPSNSERFCLGLLSNVNRNAAVELTRRHIGRGVRLYYIGGEVFAECLSDSAIFVQSPNCNQRYGWHPATVCKIPPGCNLKIFNNQEFAALLAQSVNQGFEAVYQLTRMCTIRMSFVKGWGAEARRQTVTSTPCWIELHLNGPLQWLDKVLTQMGSPSIRCSSVS | 178% | 41% | 19%

Next, values leading:

Row | percent binding relative to wild-type Smad3 [1] | percent binding relative to wild-type Smad3 [2] | percent binding relative to wild-type Smad3 [3] | Binder
4 | 168% | 41% | – | Renilla luciferase-Smad3 D408H (natural protein, UniProt P84022 1-425, looked up, Smad3; source: HEK-293, transfected together with constitutively active Alk5, in lysate) MSSILPFTPPIVKRLLGWKKGEQNGQEEKWCEKAVKSLVKKLKKTGQLDELEKAITTQNVNTKCITIPRSLDGRLQVSHRKGLPHVIYCRLWRWPDLHSHHELRAMELCEFAFNMKKDEVCVNPYHYQRVETPVLPPVLVPRHTEIPAEFPPLDDYSHSIPENTNFPAGIEPQSNIPETPPPGYLSEDGETSDHQMNHSMDAGSPNLSPNPMSPAHNNLDLQPVTYCEPAFWCSISYYELNQRVGETFHASQPSMTVDGFTDPSNSERFCLGLLSNVNRNAAVELTRRHIGRGVRLYYIGGEVFAECLSDSAIFVQSPNCNQRYGWHPATVCKIPPGCNLKIFNNQEFAALLAQSVNQGFEAVYQLTRMCTIRMSFVKGWGAEYRRQTVTSTPCWIELHLNGPLQWLHKVLTQMGSPSIRCSSVS
5 | 181% | 28% | 20% | Renilla luciferase-Smad3 R243A (natural protein, UniProt P84022 1-425, looked up, Smad3; source: HEK-293, transfected together with constitutively active Alk5, in lysate) MSSILPFTPPIVKRLLGWKKGEQNGQEEKWCEKAVKSLVKKLKKTGQLDELEKAITTQNVNTKCITIPRSLDGRLQVSHRKGLPHVIYCRLWRWPDLHSHHELRAMELCEFAFNMKKDEVCVNPYHYQRVETPVLPPVLVPRHTEIPAEFPPLDDYSHSIPENTNFPAGIEPQSNIPETPPPGYLSEDGETSDHQMNHSMDAGSPNLSPNPMSPAHNNLDLQPVTYCEPAFWCSISYYELNQAVGETFHASQPSMTVDGFTDPSNSERFCLGLLSNVNRNAAVELTRRHIGRGVRLYYIGGEVFAECLSDSAIFVQSPNCNQRYGWHPATVCKIPPGCNLKIFNNQEFAALLAQSVNQGFEAVYQLTRMCTIRMSFVKGWGAEYRRQTVTSTPCWIELHLNGPLQWLDKVLTQMGSPSIRCSSVS
6 | 159% | 13% | 18% | Renilla luciferase-Smad3 R268A (natural protein, UniProt P84022 1-425, looked up, Smad3; source: HEK-293, transfected together with constitutively active Alk5, in lysate) MSSILPFTPPIVKRLLGWKKGEQNGQEEKWCEKAVKSLVKKLKKTGQLDELEKAITTQNVNTKCITIPRSLDGRLQVSHRKGLPHVIYCRLWRWPDLHSHHELRAMELCEFAFNMKKDEVCVNPYHYQRVETPVLPPVLVPRHTEIPAEFPPLDDYSHSIPENTNFPAGIEPQSNIPETPPPGYLSEDGETSDHQMNHSMDAGSPNLSPNPMSPAHNNLDLQPVTYCEPAFWCSISYYELNQRVGETFHASQPSMTVDGFTDPSNSEAFCLGLLSNVNRNAAVELTRRHIGRGVRLYYIGGEVFAECLSDSAIFVQSPNCNQRYGWHPATVCKIPPGCNLKIFNNQEFAALLAQSVNQGFEAVYQLTRMCTIRMSFVKGWGAEYRRQTVTSTPCWIELHLNGPLQWLDKVLTQMGSPSIRCSSVS
